Measured values: article doi:10.1101/2021.02.17.431743 (bioRxiv, 2021)
“And” between values parts separate entries of the source, which are not always exact repeats. Equal values may be shown once.

Target: the molecule itself
Assay: gradient fixation ultracentrifugation

B1: HeV-RBP full ectodomain (head domain with intact stalk domain), dimeric fraction after gradient fixation (domain or fragment)
chain: QNYTRTTDNQALIKESLQSVQQQIKALTDKIGTEIGPKVSLIDTSSTITIPANIGLLGSKISQSTSSINENVNDKCKFTLPPLKIHECNISCPNPLPFREYRPISQGVSDLVGLPNQICLQKTTSTILKPRLISYTLPINTREGVCITDPLLAVDNGFFAYSHLEKIGSCTRGIAKQRIIGVGEVLDRGDKVPSMFMTNVWTPPNPSTIHHCSSTYHEDFYYTLCAVSHVGDPILNSTSWTESLSLIRLAVRPKSDSGDYNQKYIAITKVERGKYDKVMPYGPSGIKQGDTLYFPAVGFLPRTEFQYNDSNCPIIHCKYSKAENCRLSMGVNSKSHYILRSGLLKYNLSLGGDIILQFIEIADNRLTIGSPSKIYNSLGQPVFYQASYSWDTMIKLGDVDTVDPLRVQWRNNSVISRPGQSQCPRFNVCPEVCWEGTYNDAFLIDRLNWVSAGVYLNSNQTAENPVFAVFKDNEILYQVPLAEDDTNAQKTITDCFLLENVIWCISLVEIYDTGDSVIRPKLFAVKIPAQCSES
stoichiometry N: 2 and 4
